The values that follow are results of earlier work, collected in PMC10561060.

For orientation: Kd means a measure of binding affinity in units of concentration.

For the series, the target named is chemoreceptor C-terminal pentapeptide (Escherichia coli). The series is described as follows: ITC. Background: ITC needs no label: the signal is the heat of the interaction.

With CheR (from UniProt P07364), the Kd is 2 µM. Take CheB (from UniProt P07330): the equilibrium dissociation constant (Kd) was 160 µM.
